Assay results: patent US10919943B2, “Mutant proteins enabling agrochemical control of plant gene expression” (The Regents of the University of California, priority 2016, dated 2021)

B1: F159P: PYR1 mutant (protein, UniProt O49686 1-191, looked up, variant F159P)
Abscisic acid receptor PYR1: MPSELTPEERSELKNSIAEFHTYQLDPGSCSSLHAQRIHAPPELVWSIVRRFDKPQTYKHFIKSCSVEQNFEMRVGCTRDVIVISGLPANTSTERLDILDDERRVTGFSIIGGEHRLTNYKSVTTVHRFEKENRIWTVVLESYVVDMPEGNSEDDTRMPADTVVKLNLQKLATVAEAMARNSGDGSGSQVT
B2: F61P: PYR1 mutant (protein, UniProt O49686 1-191, looked up, variant F61P)
Abscisic acid receptor PYR1: MPSELTPEERSELKNSIAEFHTYQLDPGSCSSLHAQRIHAPPELVWSIVRRFDKPQTYKHPIKSCSVEQNFEMRVGCTRDVIVISGLPANTSTERLDILDDERRVTGFSIIGGEHRLTNYKSVTTVHRFEKENRIWTVVLESYVVDMPEGNSEDDTRMFADTVVKLNLQKLATVAEAMARNSGDGSGSQVT
B3: F159Y: PYR1 mutant (protein, UniProt O49686 1-191, looked up, variant F159Y)
Abscisic acid receptor PYR1: MPSELTPEERSELKNSIAEFHTYQLDPGSCSSLHAQRIHAPPELVWSIVRRFDKPQTYKHFIKSCSVEQNFEMRVGCTRDVIVISGLPANTSTERLDILDDERRVTGFSIIGGEHRLTNYKSVTTVHRFEKENRIWTVVLESYVVDMPEGNSEDDTRMYADTVVKLNLQKLATVAEAMARNSGDGSGSQVT
B4: F159K: PYR1 mutant (protein, UniProt O49686 1-191, looked up, variant F159K)
Abscisic acid receptor PYR1: MPSELTPEERSELKNSIAEFHTYQLDPGSCSSLHAQRIHAPPELVWSIVRRFDKPQTYKHFIKSCSVEQNFEMRVGCTRDVIVISGLPANTSTERLDILDDERRVTGFSIIGGEHRLTNYKSVTTVHRFEKENRIWTVVLESYVVDMPEGNSEDDTRMKADTVVKLNLQKLATVAEAMARNSGDGSGSQVT
B5: F159D: PYR1 mutant (protein, UniProt O49686 1-191, looked up, variant F159D)
Abscisic acid receptor PYR1: MPSELTPEERSELKNSIAEFHTYQLDPGSCSSLHAQRIHAPPELVWSIVRRFDKPQTYKHFIKSCSVEQNFEMRVGCTRDVIVISGLPANTSTERLDILDDERRVTGFSIIGGEHRLTNYKSVTTVHRFEKENRIWTVVLESYVVDMPEGNSEDDTRMDADTVVKLNLQKLATVAEAMARNSGDGSGSQVT
B6: F159S: PYR1 mutant (protein, UniProt O49686 1-191, looked up, variant F159S)
Abscisic acid receptor PYR1: MPSELTPEERSELKNSIAEFHTYQLDPGSCSSLHAQRIHAPPELVWSIVRRFDKPQTYKHFIKSCSVEQNFEMRVGCTRDVIVISGLPANTSTERLDILDDERRVTGFSIIGGEHRLTNYKSVTTVHRFEKENRIWTVVLESYVVDMPEGNSEDDTRMSADTVVKLNLQKLATVAEAMARNSGDGSGSQVT
B7: F159G: PYR1 mutant (protein, UniProt O49686 1-191, looked up, variant F159G)
Abscisic acid receptor PYR1: MPSELTPEERSELKNSIAEFHTYQLDPGSCSSLHAQRIHAPPELVWSIVRRFDKPQTYKHFIKSCSVEQNFEMRVGCTRDVIVISGLPANTSTERLDILDDERRVTGFSIIGGEHRLTNYKSVTTVHRFEKENRIWTVVLESYVVDMPEGNSEDDTRMGADTVVKLNLQKLATVAEAMARNSGDGSGSQVT
B8: T162P: PYR1 mutant (protein, UniProt O49686 1-191, looked up, variant T162P)
Abscisic acid receptor PYR1: MPSELTPEERSELKNSIAEFHTYQLDPGSCSSLHAQRIHAPPELVWSIVRRFDKPQTYKHFIKSCSVEQNFEMRVGCTRDVIVISGLPANTSTERLDILDDERRVTGFSIIGGEHRLTNYKSVTTVHRFEKENRIWTVVLESYVVDMPEGNSEDDTRMFADPVVKLNLQKLATVAEAMARNSGDGSGSQVT
B9: F159W: PYR1 mutant (protein, UniProt O49686 1-191, looked up, variant F159W)
Abscisic acid receptor PYR1: MPSELTPEERSELKNSIAEFHTYQLDPGSCSSLHAQRIHAPPELVWSIVRRFDKPQTYKHFIKSCSVEQNFEMRVGCTRDVIVISGLPANTSTERLDILDDERRVTGFSIIGGEHRLTNYKSVTTVHRFEKENRIWTVVLESYVVDMPEGNSEDDTRMWADTVVKLNLQKLATVAEAMARNSGDGSGSQVT
B10: F61N: PYR1 mutant (protein, UniProt O49686 1-191, looked up, variant F61N)
Abscisic acid receptor PYR1: MPSELTPEERSELKNSIAEFHTYQLDPGSCSSLHAQRIHAPPELVWSIVRRFDKPQTYKHNIKSCSVEQNFEMRVGCTRDVIVISGLPANTSTERLDILDDERRVTGFSIIGGEHRLTNYKSVTTVHRFEKENRIWTVVLESYVVDMPEGNSEDDTRMFADTVVKLNLQKLATVAEAMARNSGDGSGSQVT
B11: F61R: PYR1 mutant (protein, UniProt O49686 1-191, looked up, variant F61R)
Abscisic acid receptor PYR1: MPSELTPEERSELKNSIAEFHTYQLDPGSCSSLHAQRIHAPPELVWSIVRRFDKPQTYKHRIKSCSVEQNFEMRVGCTRDVIVISGLPANTSTERLDILDDERRVTGFSIIGGEHRLTNYKSVTTVHRFEKENRIWTVVLESYVVDMPEGNSEDDTRMFADTVVKLNLQKLATVAEAMARNSGDGSGSQVT
B12: F159R: PYR1 mutant (protein, UniProt O49686 1-191, looked up, variant F159R)
Abscisic acid receptor PYR1: MPSELTPEERSELKNSIAEFHTYQLDPGSCSSLHAQRIHAPPELVWSIVRRFDKPQTYKHFIKSCSVEQNFEMRVGCTRDVIVISGLPANTSTERLDILDDERRVTGFSIIGGEHRLTNYKSVTTVHRFEKENRIWTVVLESYVVDMPEGNSEDDTRMRADTVVKLNLQKLATVAEAMARNSGDGSGSQVT
B13: T162F: PYR1 mutant (protein, UniProt O49686 1-191, looked up, variant T162F)
Abscisic acid receptor PYR1: MPSELTPEERSELKNSIAEFHTYQLDPGSCSSLHAQRIHAPPELVWSIVRRFDKPQTYKHFIKSCSVEQNFEMRVGCTRDVIVISGLPANTSTERLDILDDERRVTGFSIIGGEHRLTNYKSVTTVHRFEKENRIWTVVLESYVVDMPEGNSEDDTRMFADFVVKLNLQKLATVAEAMARNSGDGSGSQVT
B14: F61S: PYR1 mutant (protein, UniProt O49686 1-191, looked up, variant F61S)
Abscisic acid receptor PYR1: MPSELTPEERSELKNSIAEFHTYQLDPGSCSSLHAQRIHAPPELVWSIVRRFDKPQTYKHSIKSCSVEQNFEMRVGCTRDVIVISGLPANTSTERLDILDDERRVTGFSIIGGEHRLTNYKSVTTVHRFEKENRIWTVVLESYVVDMPEGNSEDDTRMFADTVVKLNLQKLATVAEAMARNSGDGSGSQVT
B15: T162E: PYR1 mutant (protein, UniProt O49686 1-191, looked up, variant T162E)
Abscisic acid receptor PYR1: MPSELTPEERSELKNSIAEFHTYQLDPGSCSSLHAQRIHAPPELVWSIVRRFDKPQTYKHFIKSCSVEQNFEMRVGCTRDVIVISGLPANTSTERLDILDDERRVTGFSIIGGEHRLTNYKSVTTVHRFEKENRIWTVVLESYVVDMPEGNSEDDTRMFADEVVKLNLQKLATVAEAMARNSGDGSGSQVT
B16: F61Q: PYR1 mutant (protein, UniProt O49686 1-191, looked up, variant F61Q)
Abscisic acid receptor PYR1: MPSELTPEERSELKNSIAEFHTYQLDPGSCSSLHAQRIHAPPELVWSIVRRFDKPQTYKHQIKSCSVEQNFEMRVGCTRDVIVISGLPANTSTERLDILDDERRVTGFSIIGGEHRLTNYKSVTTVHRFEKENRIWTVVLESYVVDMPEGNSEDDTRMFADTVVKLNLQKLATVAEAMARNSGDGSGSQVT
B17: F61D: PYR1 mutant (protein, UniProt O49686 1-191, looked up, variant F61D)
Abscisic acid receptor PYR1: MPSELTPEERSELKNSIAEFHTYQLDPGSCSSLHAQRIHAPPELVWSIVRRFDKPQTYKHDIKSCSVEQNFEMRVGCTRDVIVISGLPANTSTERLDILDDERRVTGFSIIGGEHRLTNYKSVTTVHRFEKENRIWTVVLESYVVDMPEGNSEDDTRMFADTVVKLNLQKLATVAEAMARNSGDGSGSQVT
B18: F159Q: PYR1 mutant (protein, UniProt O49686 1-191, looked up, variant F159Q)
Abscisic acid receptor PYR1: MPSELTPEERSELKNSIAEFHTYQLDPGSCSSLHAQRIHAPPELVWSIVRRFDKPQTYKHFIKSCSVEQNFEMRVGCTRDVIVISGLPANTSTERLDILDDERRVTGFSIIGGEHRLTNYKSVTTVHRFEKENRIWTVVLESYVVDMPEGNSEDDTRMQADTVVKLNLQKLATVAEAMARNSGDGSGSQVT
B19: F159E: PYR1 mutant (protein, UniProt O49686 1-191, looked up, variant F159E)
Abscisic acid receptor PYR1: MPSELTPEERSELKNSIAEFHTYQLDPGSCSSLHAQRIHAPPELVWSIVRRFDKPQTYKHFIKSCSVEQNFEMRVGCTRDVIVISGLPANTSTERLDILDDERRVTGFSIIGGEHRLTNYKSVTTVHRFEKENRIWTVVLESYVVDMPEGNSEDDTRMEADTVVKLNLQKLATVAEAMARNSGDGSGSQVT
B20: F159H: PYR1 mutant (protein, UniProt O49686 1-191, looked up, variant F159H)
Abscisic acid receptor PYR1: MPSELTPEERSELKNSIAEFHTYQLDPGSCSSLHAQRIHAPPELVWSIVRRFDKPQTYKHFIKSCSVEQNFEMRVGCTRDVIVISGLPANTSTERLDILDDERRVTGFSIIGGEHRLTNYKSVTTVHRFEKENRIWTVVLESYVVDMPEGNSEDDTRMHADTVVKLNLQKLATVAEAMARNSGDGSGSQVT
B21: K170P: PYR1 mutant (protein, UniProt O49686 1-191, looked up, variant K170P)
Abscisic acid receptor PYR1: MPSELTPEERSELKNSIAEFHTYQLDPGSCSSLHAQRIHAPPELVWSIVRRFDKPQTYKHFIKSCSVEQNFEMRVGCTRDVIVISGLPANTSTERLDILDDERRVTGFSIIGGEHRLTNYKSVTTVHRFEKENRIWTVVLESYVVDMPEGNSEDDTRMFADTVVKLNLQPLATVAEAMARNSGDGSGSQVT

System: HAB1
Assay: Yeast two hybrid of pBD-PYR1 site saturation mutants with pACT-HAB1 on 10 μM ABA, β-galactosidase staining
Format: cell-based, Arabidopsis
Design: key: x: Mutations in PYR1 that disrupt ABA-induced binding to PYR1 to HAB1
Conditions: S. cerevisiae Y190, 10 μM ABA; dead = lack of visible staining in comparison to wild type control
In short: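 Binding was read by β-galactosidase staining of chloroform-lysed colonies after 2 days at 30° C on SD (-Leu, -Trp) plates containing 10 μM (+)-ABA. Yeast strain Y190 carried the BD-PYR1 single-substitution mutants plus the AD-HAB1 fusion. Absence of staining versus the wild-type control defined "dead" mutants.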

Molecule	Mutations in PYR1 that disrupt ABA-induced binding to PYR1 to HAB1
B1	x
B2	x
B3	x
B4	x
B5	x
B6	x
B7	x
B8	x
B9	x
B10	x
B11	x
B12	x
B13	x
B14	x
B15	x
B16	x
B17	x
B18	x
B19	x
B20	x
B21	x
